Reference: US20250042956A1
Blank lines part the entries; values can stand above or below the binder they belong to.

Assays:
[1] = molecular target: AT4G20400.1 JMJ14 (Arabidopsis thaliana), Q8GUI6; test: X-link IP-MS; conditions: remark: other sources report otherwise
[2] = molecular target: T1, AT5G17690.1 LHP1 (Arabidopsis thaliana), Q946J8; test: X-link IP-MS; conditions: remark: other sources report otherwise
T1 chain: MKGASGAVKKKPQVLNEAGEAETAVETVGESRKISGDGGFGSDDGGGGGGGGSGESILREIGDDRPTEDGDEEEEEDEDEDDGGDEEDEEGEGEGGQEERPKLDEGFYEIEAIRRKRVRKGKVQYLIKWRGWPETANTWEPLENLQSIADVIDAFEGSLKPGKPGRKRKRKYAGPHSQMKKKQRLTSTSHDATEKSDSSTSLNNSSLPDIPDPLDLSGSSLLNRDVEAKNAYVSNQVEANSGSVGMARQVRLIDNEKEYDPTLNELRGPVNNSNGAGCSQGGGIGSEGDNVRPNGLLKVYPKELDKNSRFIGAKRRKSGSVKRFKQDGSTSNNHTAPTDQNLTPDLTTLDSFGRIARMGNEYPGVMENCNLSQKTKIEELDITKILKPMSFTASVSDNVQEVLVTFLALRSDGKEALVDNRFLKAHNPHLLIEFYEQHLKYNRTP

[3] = molecular target: AT4G20400.1 JMJ14 (Arabidopsis thaliana), Q8GUI6; test: IP-MS rep 1; conditions: remark: other sources report otherwise
[4] = molecular target: T1, AT5G17690.1 LHP1 (Arabidopsis …); test: IP-MS rep 1; conditions: remark: other sources report otherwise
[5] = molecular target: AT4G20400.1 JMJ14 (Arabidopsis thaliana), Q8GUI6; test: IP-MS rep 2; conditions: remark: other sources report otherwise
[6] = molecular target: T1, AT5G17690.1 LHP1 (Arabidopsis …); test: IP-MS rep 2; conditions: remark: other sources report otherwise
[7] = molecular target: T2, AT4G02020.1 SWN (Arabidopsis thaliana) (UniProt Q9ZSM8); test: X-link IP-MS
T2 sequence (looked up): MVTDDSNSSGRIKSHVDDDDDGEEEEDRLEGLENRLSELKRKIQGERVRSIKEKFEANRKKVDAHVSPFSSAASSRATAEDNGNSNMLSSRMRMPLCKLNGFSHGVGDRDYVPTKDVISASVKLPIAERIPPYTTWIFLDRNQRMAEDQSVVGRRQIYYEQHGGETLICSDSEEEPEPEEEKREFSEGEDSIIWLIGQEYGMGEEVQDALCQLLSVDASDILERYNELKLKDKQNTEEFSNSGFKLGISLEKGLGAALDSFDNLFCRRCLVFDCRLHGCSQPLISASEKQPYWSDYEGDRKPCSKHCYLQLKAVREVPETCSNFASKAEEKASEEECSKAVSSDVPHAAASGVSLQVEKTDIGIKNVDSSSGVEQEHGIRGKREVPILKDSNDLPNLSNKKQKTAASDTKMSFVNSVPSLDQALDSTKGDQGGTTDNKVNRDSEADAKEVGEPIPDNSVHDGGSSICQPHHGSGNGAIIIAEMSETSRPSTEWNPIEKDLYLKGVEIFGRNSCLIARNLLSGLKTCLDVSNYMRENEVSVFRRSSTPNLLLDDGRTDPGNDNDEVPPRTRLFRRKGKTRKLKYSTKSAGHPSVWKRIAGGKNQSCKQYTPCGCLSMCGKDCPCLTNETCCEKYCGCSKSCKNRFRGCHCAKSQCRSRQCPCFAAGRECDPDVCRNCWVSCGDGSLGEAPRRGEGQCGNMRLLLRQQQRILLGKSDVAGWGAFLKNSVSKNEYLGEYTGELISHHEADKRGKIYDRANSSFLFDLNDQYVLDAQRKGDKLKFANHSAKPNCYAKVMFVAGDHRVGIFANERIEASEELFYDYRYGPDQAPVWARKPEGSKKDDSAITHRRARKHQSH

[8] = molecular target: T2, AT4G02020.1 SWN (Arabidopsis thaliana); test: IP-MS rep 2
[9] = molecular target: T2, AT4G02020.1 SWN (Arabidopsis thaliana); test: IP-MS rep 1
[10] = molecular target: T3, AT5G17690.1 LHP1 (Arabidopsis thaliana) (UniProt Q946J8); test: IP-MS rep 2
T3 sequence: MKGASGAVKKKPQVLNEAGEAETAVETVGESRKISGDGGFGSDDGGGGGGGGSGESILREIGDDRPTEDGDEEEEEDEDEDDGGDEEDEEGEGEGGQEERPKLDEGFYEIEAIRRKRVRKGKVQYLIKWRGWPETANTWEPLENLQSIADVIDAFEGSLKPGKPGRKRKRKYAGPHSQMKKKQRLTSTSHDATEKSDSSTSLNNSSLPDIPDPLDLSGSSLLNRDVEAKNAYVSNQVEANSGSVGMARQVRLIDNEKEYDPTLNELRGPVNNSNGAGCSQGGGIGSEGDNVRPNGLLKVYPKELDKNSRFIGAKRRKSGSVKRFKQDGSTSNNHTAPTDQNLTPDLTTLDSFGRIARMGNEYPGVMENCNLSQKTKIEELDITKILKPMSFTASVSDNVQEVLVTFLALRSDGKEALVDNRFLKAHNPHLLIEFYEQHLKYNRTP

[11] = molecular target: T3, AT5G17690.1 LHP1 (Arabidopsis thaliana); test: IP-MS rep 1
[12] = molecular target: T4, AT3G49850.1 TRB3 (Arabidopsis thaliana) (UniProt Q9M2X3); test: X-link IP-MS
T4 sequence: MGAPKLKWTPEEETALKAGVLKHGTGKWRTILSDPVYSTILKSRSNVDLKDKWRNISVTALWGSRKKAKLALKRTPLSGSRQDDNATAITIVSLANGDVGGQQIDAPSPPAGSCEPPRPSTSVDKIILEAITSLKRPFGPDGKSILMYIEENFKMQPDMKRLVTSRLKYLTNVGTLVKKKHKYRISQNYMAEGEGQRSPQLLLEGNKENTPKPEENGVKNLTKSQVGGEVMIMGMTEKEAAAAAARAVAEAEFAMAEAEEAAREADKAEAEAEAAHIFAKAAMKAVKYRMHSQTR

[13] = molecular target: T4, AT3G49850.1 TRB3 (Arabidopsis thaliana); test: IP-MS rep 2
[14] = molecular target: T4, AT3G49850.1 TRB3 (Arabidopsis thaliana); test: IP-MS rep 1
[15] = molecular target: T5, AT5G67580.1 TRB2 (Arabidopsis thaliana) (UniProt Q9FJW5); test: X-link IP-MS
T5 sequence: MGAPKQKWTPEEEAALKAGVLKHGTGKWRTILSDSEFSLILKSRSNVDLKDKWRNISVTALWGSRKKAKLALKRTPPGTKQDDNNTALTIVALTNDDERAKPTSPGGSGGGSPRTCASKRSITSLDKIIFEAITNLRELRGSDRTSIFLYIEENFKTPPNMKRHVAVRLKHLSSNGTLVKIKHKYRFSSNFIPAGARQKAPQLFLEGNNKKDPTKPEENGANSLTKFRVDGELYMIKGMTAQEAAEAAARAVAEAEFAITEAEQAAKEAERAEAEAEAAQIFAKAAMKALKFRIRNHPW

[16] = molecular target: T5, AT5G67580.1 TRB2 (Arabidopsis thaliana); test: IP-MS rep 2
[17] = molecular target: T5, AT5G67580.1 TRB2 (Arabidopsis thaliana); test: IP-MS rep 1

Chain of AT4G20400.1 JMJ14 (Arabidopsis thaliana), Q8GUI6 (Q8GUI6 whole entry): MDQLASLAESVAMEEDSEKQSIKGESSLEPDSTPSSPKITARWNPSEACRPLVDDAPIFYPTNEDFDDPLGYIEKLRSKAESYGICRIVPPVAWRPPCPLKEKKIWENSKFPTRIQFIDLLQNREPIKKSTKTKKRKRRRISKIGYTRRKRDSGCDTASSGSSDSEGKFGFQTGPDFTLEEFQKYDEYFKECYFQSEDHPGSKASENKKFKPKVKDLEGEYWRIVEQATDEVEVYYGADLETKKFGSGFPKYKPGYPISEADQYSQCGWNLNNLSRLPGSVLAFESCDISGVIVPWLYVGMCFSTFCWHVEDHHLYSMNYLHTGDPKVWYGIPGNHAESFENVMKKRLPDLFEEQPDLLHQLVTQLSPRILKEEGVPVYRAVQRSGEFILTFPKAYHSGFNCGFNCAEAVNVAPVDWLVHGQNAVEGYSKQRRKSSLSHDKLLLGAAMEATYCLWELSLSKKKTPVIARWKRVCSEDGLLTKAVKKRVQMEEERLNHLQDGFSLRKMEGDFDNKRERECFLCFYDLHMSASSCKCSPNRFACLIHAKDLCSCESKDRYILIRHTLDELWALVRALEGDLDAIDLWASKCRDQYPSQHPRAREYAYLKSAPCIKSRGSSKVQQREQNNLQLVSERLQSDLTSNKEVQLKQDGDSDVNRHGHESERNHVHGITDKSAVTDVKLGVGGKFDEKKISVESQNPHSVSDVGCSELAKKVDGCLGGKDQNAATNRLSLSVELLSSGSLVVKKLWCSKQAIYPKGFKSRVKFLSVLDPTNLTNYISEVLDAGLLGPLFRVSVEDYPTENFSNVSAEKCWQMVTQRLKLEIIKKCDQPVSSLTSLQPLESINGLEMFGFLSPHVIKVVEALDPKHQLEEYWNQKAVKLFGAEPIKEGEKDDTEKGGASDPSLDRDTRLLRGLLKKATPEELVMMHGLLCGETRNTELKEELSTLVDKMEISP

B1: FLAG-TRB1, Q8VWK4 1-300 (protein, not shown: small tags and cut ends)
chain: MGAPKQKWTQEEESALKSGVIKHGPGKWRTILKDPEFSGVLYLRSNVDLKDKWRNMSVMANGWGSREKSRLAVKRTFSLPKQEENSLALTNSLQSDEENVDATSGLQVSSNPPPRRPNVRLDSLIMEAIATLKEPGGCNKTTIGAYIEDQYHAPPDFKRLLSTKLKYLTSCGKLVKVKRKYRIPNSTPLSSHRRKGLGVFGGKQRTSSLPSPKTDIDEVNFQTRSQIDTEIARMKSMNVHEAAAVAAQAVAEAEAAMAEAEEAAKEAEAAEAEAEAAQAFAEEASKTLKGRNICKMMIRA
IP-MS count [1]: 77
IP-MS count [2]: 0
IP-MS count [3]: 34
IP-MS count [4]: 0
IP-MS count [5]: 35
IP-MS count [6]: 1

B4: FLAG-TRB2 (protein, not shown: small tags and cut ends)
chain: MGAPKQKWTPEEEAALKAGVLKHGTGKWRTILSDSEFSLILKSRSNVDLKDKWRNISVTALWGSRKKAKLALKRTPPGTKQDDNNTALTIVALTNDDERAKPTSPGGSGGGSPRTCASKRSITSLDKIIFEAITNLRELRGSDRTSIFLYIEENFKTPPNMKRHVAVRLKHLSSNGTLVKIKHKYRFSSNFIPAGARQKAPQLFLEGNNKKDPTKPEENGANSLTKFRVDGELYMIKGMTAQEAAEAAARAVAEAEFAITEAEQAAKEAERAEAEAEAAQIFAKAAMKALKFRIRNHPW
IP-MS count [12]: 4
IP-MS count [13]: 0
IP-MS count [14]: 0

B5: FLAG-TRB3 (protein, not shown: small tags and cut ends)
chain: MGAPKLKWTPEEETALKAGVLKHGTGKWRTILSDPVYSTILKSRSNVDLKDKWRNISVTALWGSRKKAKLALKRTPLSGSRQDDNATAITIVSLANGDVGGQQIDAPSPPAGSCEPPRPSTSVDKIILEAITSLKRPFGPDGKSILMYIEENFKMQPDMKRLVTSRLKYLTNVGTLVKKKHKYRISQNYMAEGEGQRSPQLLLEGNKENTPKPEENGVKNLTKSQVGGEVMIMGMTEKEAAAAAARAVAEAEFAMAEAEEAAREADKAEAEAEAAHIFAKAAMKAVKYRMHSQTR
IP-MS count [15]: 11
IP-MS count [16]: 11
IP-MS count [17]: 12

Next, values leading:

IP-MS count [7]: 2
IP-MS count [8]: 0
IP-MS count [9]: 1
B2: FLAG-TRB1 (protein, not shown: small tags and cut ends)
chain: MGAPKQKWTQEEESALKSGVIKHGPGKWRTILKDPEFSGVLYLRSNVDLKDKWRNMSVMANGWGSREKSRLAVKRTFSLPKQEENSLALTNSLQSDEENVDATSGLQVSSNPPPRRPNVRLDSLIMEAIATLKEPGGCNKTTIGAYIEDQYHAPPDFKRLLSTKLKYLTSCGKLVKVKRKYRIPNSTPLSSHRRKGLGVFGGKQRTSSLPSPKTDIDEVNFQTRSQIDTEIARMKSMNVHEAAAVAAQAVAEAEAAMAEAEEAAKEAEAAEAEAEAAQAFAEEASKTLKGRNICKMMIRA

IP-MS count [10]: 1
IP-MS count [11]: 2
B3: TRBIP2 (bait of the TRBIP2 IP-MS) (protein, not shown: small tags and cut ends)
chain: MATNACLESDSLLPPRKRLLAGFKNQNSRISNESPSPPFASSSSSTTTSNGSSASAVVHTHHLDHLLNDQTRSPEELAQASKATAALAVKVAKAARATANEKAIIASKAVAAAKNALELFASFPAAETVSCKEPRLIRAINNSPRVLTDCSGHRNKKQKTLTSTMNDGNDVAGVVDSDDGTRVNGKLLLCDNTLKEKTEEESSSLGKRRGRVKLPLSMCAYKDQENGITLEENNLSVSKSEGYNGGVAQVIERPSWKCQDLKSPECVKQNKVVRS

IP-MS count [1]: 72
IP-MS count [3]: 13
IP-MS count [5]: 12
B6: FLAG-TRB3, Q9M2X3 1-295 (protein, not shown: small tags and cut ends)
chain: MGAPKLKWTPEEETALKAGVLKHGTGKWRTILSDPVYSTILKSRSNVDLKDKWRNISVTALWGSRKKAKLALKRTPLSGSRQDDNATAITIVSLANGDVGGQQIDAPSPPAGSCEPPRPSTSVDKIILEAITSLKRPFGPDGKSILMYIEENFKMQPDMKRLVTSRLKYLTNVGTLVKKKHKYRISQNYMAEGEGQRSPQLLLEGNKENTPKPEENGVKNLTKSQVGGEVMIMGMTEKEAAAAAARAVAEAEFAMAEAEEAAREADKAEAEAEAAHIFAKAAMKAVKYRMHSQTR
